According to publication PMC4324310:

How the values were obtained:
[1] = tested on: T1, RovS (Streptococcus agalactiae NEM316), ORF:d252635c; experiment: EMSA
T1 sequence: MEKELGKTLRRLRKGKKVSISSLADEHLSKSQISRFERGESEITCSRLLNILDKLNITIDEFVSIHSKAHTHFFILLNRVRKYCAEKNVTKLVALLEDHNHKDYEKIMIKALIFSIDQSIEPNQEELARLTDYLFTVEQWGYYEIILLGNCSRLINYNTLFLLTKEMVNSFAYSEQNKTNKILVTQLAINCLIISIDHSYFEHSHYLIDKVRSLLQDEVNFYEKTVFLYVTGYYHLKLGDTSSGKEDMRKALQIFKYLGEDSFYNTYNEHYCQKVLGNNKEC

[2] = tested on: T1, RovS (Streptococcus agalactiae NEM316), ORF:d252635c; experiment: competition

| Sequence | binding ([1]; part of the binding motif deleted) | binding [1] | binding [2] |
| --- | --- | --- | --- |
| CTAACTTTTTTTCCTTTACGTAATCTTCTTAGTGTTTTTCCTAATTCTTTTTCCATTTTTATTTAAAAGACCCTTTAAATCCATTATATAATACAAGTACAAAATAGAAAATCAGAAAGG (double strand) [Pshp without the motif probe] | no binding | – | – |
| GCAATTTATTATTAATTTGTATGTTTAAAATTAAATAGTTGATATCTAAAACATGATATTTTTAAATTTTCCTTTAATATTATAAAGCATGATAGATAGTCATACTAACATTAAGATTTACAATGAGGTAATAGTATATT (double strand) [PfbsA probe] | – | no binding | – |
| ATTAGTGACTTCTTTCATTGAAAATGATAGAATATAGGTGTATGGGAAACTTCCCAAAAATATTTAAGGAGATGTTTAGAAATGACTGCAACTAAACAACATAAAAAAGTTATCCTCGTTGGTGATGGTG (double strand) [PldhL probe] | – | no binding | no binding |
